# T1: recombinant human IL-1α (human, UniProt P01583 113-271)
# T1 sequence (looked up): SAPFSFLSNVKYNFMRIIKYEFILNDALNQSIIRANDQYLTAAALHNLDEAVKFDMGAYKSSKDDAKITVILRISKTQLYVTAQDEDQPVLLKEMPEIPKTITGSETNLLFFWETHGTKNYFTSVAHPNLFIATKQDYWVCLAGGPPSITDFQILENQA
# B1: hIL-1a/bDVD1-Ig (bispecific antibody, human IgG1, kappa)
# heavy: not shown
# light: NIVLTQSPASLAVSLGQRATISCRASESVDSYGNSYMHWYQQKPGQPPKLLIYLASNLESGVPARFSGSGSRTDFTLTIDPVEADDAATYYCQQNNEDPFTFGSGTKLEIKRNIQMTQTTSSLSASLGDRVTISCRASQDISNCLNWYQQKPDGTVKLLIYYTSRLHSGVPSRFSGSGSGTDYSLTISNLEQEDIATYFCQQGKTLPYAFGGGTKLEINRTVAAPSVFIFPPSDEQLKSGTASVVCLLNNFYPREAKVQWKVDNALQSGNSQESVTEQDSKDSTYSLSSTLTLSKADYEKHKVYACEVTHQGLSSPVTKSFNRGEC
# Biological target: T1, recombinant human IL-1α
# Experiment: cell-based or functional assay
binder,measurement,value
B1,"neutralizing activity in the MRC-5 bioassay, fold less than the chimeric Abs",3 fold

# Reference: patent US20140377805A1 (published 2014)
